Here are results for six molecules from publication PMC6079011, “Salvage of the 5-deoxyribose byproduct of radical SAM enzymes” (Nature Communications, 2018).

In one data set the target is DrdA (aldolase) (Bacillus thuringiensis, UniProt P0DTQ0). The settings on record: tag-free protein, Mn2+ site, co-crystallised with 20 equivalents DHAP, pH 7.5.
For data set [1], the target named is B. thuringiensis 5-deoxyribose disposal isomerase DrdI, His6-tagged (Bacillus thuringiensis HD73-20 (BGSC 4D22)). In words: SEC; native molecular mass estimated on a Superdex 200 column, eluted with 50 mM HEPES-KOH, 50 mM KCl, pH 7.5, 10% glycerol.
Another data set concerns the target T1, DEP1 (AtDEP1) (Arabidopsis thaliana, UniProt Q9FN41).
T1 construct: gene At5g53850; C-terminal His6-tag, from cDNA clone, expressed in E. coli BL21 CodonPlus (DE3)-RIPL; class II aldolase fused to HAD phosphatase domain
T1 sequence (Q9FN41 2-507): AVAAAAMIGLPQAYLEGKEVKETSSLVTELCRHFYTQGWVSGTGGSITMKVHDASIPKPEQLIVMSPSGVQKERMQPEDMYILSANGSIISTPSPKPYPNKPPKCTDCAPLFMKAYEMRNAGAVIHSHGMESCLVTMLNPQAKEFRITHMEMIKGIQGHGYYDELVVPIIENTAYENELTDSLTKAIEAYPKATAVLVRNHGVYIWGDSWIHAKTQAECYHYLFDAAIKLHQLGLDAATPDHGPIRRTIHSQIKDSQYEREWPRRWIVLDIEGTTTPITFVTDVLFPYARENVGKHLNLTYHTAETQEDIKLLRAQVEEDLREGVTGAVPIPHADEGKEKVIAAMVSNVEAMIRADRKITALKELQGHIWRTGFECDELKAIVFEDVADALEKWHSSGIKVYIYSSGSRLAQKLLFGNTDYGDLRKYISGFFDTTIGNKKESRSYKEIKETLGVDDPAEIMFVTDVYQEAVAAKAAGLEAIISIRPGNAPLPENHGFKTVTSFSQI
The experiment in a line: coupled glycerol-3-phosphate dehydrogenase NADH assay. Format: biochemical. The settings on record: aldol cleavage, 500 µM dRu1P, pH 8.2, 21 °C.

Substrate in data set [2]: C[C@H]1O[C@H](OP(=O)(O)O)[C@H](O)[C@@H]1O
The experiment in a line: coupled DrdA/glycerol-3-phosphate dehydrogenase NADH assay. Format: biochemical, Bacillus thuringiensis. The settings on record: pH 8.0, 21 °C. The source says:
coupled DrdA/glycerol-3-phosphate dehydrogenase NADH assay on DrdI (isomerase)

Data set [3] deals with the molecule itself. In words: crystal structure; X-ray, 1.55 Å, space group P42(1)2, one monomer per asymmetric unit; crystals from 200 mM NaCl, 28% PEG-3350, 100 mM HEPES-KOH pH 7.5, 20 °C.
Data set [4] concerns the molecule itself. The experiment in a line: SEC; native molecular mass estimated on a Superdex 200 column, eluted with 50 mM HEPES-KOH, 50 mM KCl, pH 7.5, 10% glycerol.
Substrate in data set [5]: Nc1ncnc2c1ncn2[C@@H]1O[C@H](COP(=O)(O)OP(=O)(O)OP(=O)(O)O)[C@@H](O)[C@H]1O
In words: coupled pyruvate kinase/lactate dehydrogenase NADH assay. It is filed as biochemical, Bacillus thuringiensis. The settings on record: co-substrate 5-deoxyribose (500 µM), Mg2+, pH 8.0, 21 °C. The source says:
coupled pyruvate kinase/lactate dehydrogenase NADH assay on DrdK (kinase)

Take `O=C(CO)COP(=O)(O)O` [dihydroxyacetone phosphate]: on DrdA (aldolase), the “X-ray crystal structure of complex” value is “we solved the co-complex structure of DHAP bound to DrdA”.

As usually defined, the stoichiometry N is the number of molecules, sites or subunits per partner or assembly. Take “B. thuringiensis 5-deoxyribose disposal isomerase DrdI, His6-tagged (enzyme)”: the stoichiometry N in data set [1] is 2.

Regarding `C[C@@H](O)[C@@H](O)C(=O)COP(=O)(O)O` [5-deoxyribulose 1-phosphate], the “coupled glycerol-3-phosphate dehydrogenase NADH assay” value at DEP1 (AtDEP1) is “Recombinant DEP1 showed aldolase activity towards 5-deoxyribulose-1-phosphate”.

B1: DrdI (isomerase) (Bacillus thuringiensis serovar kurstaki str. HD73) (protein)
chain: MMEEQLIPIQWKDDALVLLDQTLLPNEIVYESFKTAESVWDAIQVMKVRGAPVIGVSAAYGVYLGVKEFAESTEEGFMDEVRKVCTYLATSRPTAVNLFWALERMESVAADNIHLSISQLKDRLLEEAKEIHREDEEINRQIGEHALTLFHDGMGVLTHCNAGALATTKYGTATAPMYLAKEKGWDLKIFSDETRPRLQGSTLTALELQRAGIDVTVITDNMAAMVMSQGKIDAVIVGCDRVAANGDIANKIGTLGVSILAKYYNIPFYVAAPTPTIDLKTPTGKEIPIEERDASEVINRFGQYSAPKESKVYNPAFDVTPHENVTAIITEKGIVKAPFTENLKKIFQ
notes: full length, N-terminal His6-tag with short linker, expressed in E. coli BL21 CodonPlus (DE3)-RIPL; dimer
One may read the Km as the concentration of substrate that gives half-maximal velocity. What is called kcat is the number of substrate molecules converted per active site and unit of time at saturation. The term kcat/Km denotes the turnover number divided by the Michaelis constant. On to B1, for which, in data set [2], the Michaelis constant (Km) was 22 ± 7 × 10^3 µM, the kcat stood at 3.5 ± 0.7 s⁻¹ and the kcat/Km is 160 ± 60 M⁻¹ s⁻¹.

B2: B. thuringiensis aldolase DrdA, tag-free variant (enzyme)
chain: MLLQKEREEIVAYGKKMISSGLTKGTGGNISIFNREQGLVAISPSGLEYYETKPEDVVILNLDGEVIEGERKPSSELDMHLIYYRKREDINALVHTHSPYAKTIASLGWELPAVSYLIAFAGPNVRCAPYETFGTKQLADAAFEGMIDRRAVLLANHGLIAGANNIKMAFTVAEEIEFCAQIYYQTKSIGEPKLLPEDEMENLAKKFEGYGQQ
notes: also called tag-free version; His-tag-free protein; source: E. coli BL21(DE3), purified (ammonium sulfate precipitation, MonoQ anion exchange, Superdex 200 SEC)
As to B2, the “stoichiometry N” value in data set [3] stood at 4.

B3: B. thuringiensis 5-deoxyribose disposal kinase DrdK, His6-tagged (enzyme, UniProt P0DTQ2 1-409, looked up)
chain: MSKFTKYFLMEASDVIAYVKEKLSKFEHAKGLKCKEIGDGNLNYVFRVWDKKENMSVIVKQAGDTARISDEFKLSTNRIRIESDVLQLENELAPGLVPKVYLFDSVMNCCVMEDLSNHTILRTALINHQIFPQLADDLTTFMVNTLLLTSDVVMNHKEKKELVKNYINPELCEITEDLVYSEPFTNHNKRNELFPLNEGWIREHIYSDKELRMEVAKRKFSFMTNAQALLHGDLHTGSVFVRDDSTKVIDPEFAFYGPMGYDVGNVMANLMFAWVNADATMPPGAEKDTYMDWLQTTMVEVIDLFKKKFLDAWDIHVTEIMAKEEGFNEVYLQSVLEDTAAVTGLELIRRIVGLAKVKDITCIENEEARARAEQICLKVAKSFILRANQYRTGRSFVETLKEQSMHYAE
notes: Cloned into pET28b (XbaI/XhoI amplicon into NheI/XhoI); No step that removes the tag is described; also called 5-deoxyribose kinase; source: E. coli BL21 CodonPlus (DE3)-RIPL, purified (Ni-NTA)
For the molecule B3, the “stoichiometry N” value in data set [4] was 2. Also, in data set [5], the Km was found to be 216 ± 63 µM, the kcat was 17.1 ± 2.5 s⁻¹ and the catalytic efficiency (kcat/Km) is 79000 ± 26000 M⁻¹ s⁻¹.
